Laboratory results taken from the supplement of paper PMC10567573.

B1: TRAF3IP2 (parent)
chain: YGHDYPRAAYQQVIQPALPGQPLP

Variants of: B1
Assay: protein stability index of a GFP-peptide fusion (GPS, HEK-293T) (PSI 1-6); higher = more stable
Conditions: c terminus: a fixed tail appended
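Also: lentivirally expressed fusions sorted by FACS into six bins by GFP to DsRed ratio, PSI derived from sequencing read proportions per bin multiplied by bin number.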

Compared with YGHDYPRAAYQQVFQPALPGQPLP [I14F], YGHDYPRAAYQQVGQPALPGQPLP [I14G] is lower in protein stability index: 2.01 for the first, 1.92 for the second.

Going from YGHDYPRAAYQQVHQPALPGQPLP [I14H] to YGHDYPRAAYQQVKQPALPGQPLP [I14K], the protein stability index rises from 1.88 to 2.31.

Going from YGHDYPRAAYQQVLQPALPGQPLP [I14L] to YGHDYPRAAYQQVMQPALPGQPLP [I14M], the protein stability index falls from 1.77 to 1.49.

First: YGHDYPRAAYQQVNQPALPGQPLP [I14N]
Second: YGHDYPRAAYQQVPQPALPGQPLP [I14P]
The protein stability index of the first is lower: 1.92 for the first, 2.14 for the second.

Compared with YGHDYPRAAYQQVQQPALPGQPLP [I14Q], YGHDYPRAAYQQVRQPALPGQPLP [I14R] is lower in protein stability index: 1.75 for the first, 1.74 for the second.

Compared with YGHDYPRAAYQQVSQPALPGQPLP [I14S], YGHDYPRAAYQQVTQPALPGQPLP [I14T] is lower in protein stability index: 2.09 for the first, 1.86 for the second.

First: YGHDYPRAAYQQVVQPALPGQPLP [I14V]
Second: YGHDYPRAAYQQVWQPALPGQPLP [I14W]
The protein stability index of the first is lower: 1.67 for the first, 2.33 for the second.

Going from YGHDYPRAAYQQVYQPALPGQPLP [I14Y] to YGHDYPRAAYQQVIAPALPGQPLP [Q15A], the protein stability index falls from 2.52 to 1.74.

Compared with YGHDYPRAAYQQVICPALPGQPLP [Q15C], YGHDYPRAAYQQVIDPALPGQPLP [Q15D] is higher in protein stability index: 2.22 for the first, 2.6 for the second.

Going from YGHDYPRAAYQQVIEPALPGQPLP [Q15E] to YGHDYPRAAYQQVIFPALPGQPLP [Q15F], the protein stability index rises from 2.1 to 2.68.

Going from YGHDYPRAAYQQVIGPALPGQPLP [Q15G] to YGHDYPRAAYQQVIHPALPGQPLP [Q15H], the protein stability index rises from 2.42 to 2.46.

Compared with YGHDYPRAAYQQVIIPALPGQPLP [Q15I], YGHDYPRAAYQQVIKPALPGQPLP [Q15K] is lower in protein stability index: 2.14 for the first, 1.82 for the second.

Compared with YGHDYPRAAYQQVILPALPGQPLP [Q15L], YGHDYPRAAYQQVIMPALPGQPLP [Q15M] is lower in protein stability index: 2.23 for the first, 1.59 for the second.

First: YGHDYPRAAYQQVINPALPGQPLP [Q15N]
Second: YGHDYPRAAYQQVIPPALPGQPLP [Q15P]
The protein stability index of the first is lower: 1.63 for the first, 2.45 for the second.

Going from YGHDYPRAAYQQVIRPALPGQPLP [Q15R] to YGHDYPRAAYQQVISPALPGQPLP [Q15S], the protein stability index falls from 2.24 to 2.01.

Compared with YGHDYPRAAYQQVITPALPGQPLP [Q15T], YGHDYPRAAYQQVIVPALPGQPLP [Q15V] is higher in protein stability index: 1.62 for the first, 1.68 for the second.

Going from YGHDYPRAAYQQVIWPALPGQPLP [Q15W] to YGHDYPRAAYQQVIYPALPGQPLP [Q15Y], the protein stability index falls from 3.01 to 2.53.

Going from YGHDYPRAAYQQVIQAALPGQPLP [P16A] to YGHDYPRAAYQQVIQCALPGQPLP [P16C], the protein stability index rises from 1.94 to 2.35.

Compared with YGHDYPRAAYQQVIQDALPGQPLP [P16D], YGHDYPRAAYQQVIQEALPGQPLP [P16E] is higher in protein stability index: 2.22 for the first, 2.25 for the second.

First: YGHDYPRAAYQQVIQFALPGQPLP [P16F]
Second: YGHDYPRAAYQQVIQGALPGQPLP [P16G]
The protein stability index of the first is higher: 2.74 for the first, 1.54 for the second.

Compared with YGHDYPRAAYQQVIQHALPGQPLP [P16H], YGHDYPRAAYQQVIQIALPGQPLP [P16I] is higher in protein stability index: 1.57 for the first, 2.79 for the second.

Going from YGHDYPRAAYQQVIQKALPGQPLP [P16K] to YGHDYPRAAYQQVIQLALPGQPLP [P16L], the protein stability index falls from 2.48 to 1.39.

Compared with YGHDYPRAAYQQVIQMALPGQPLP [P16M], YGHDYPRAAYQQVIQNALPGQPLP [P16N] is higher in protein stability index: 1.89 for the first, 1.95 for the second.

Compared with YGHDYPRAAYQQVIQQALPGQPLP [P16Q], YGHDYPRAAYQQVIQRALPGQPLP [P16R] is lower in protein stability index: 2.03 for the first, 1.71 for the second.

Compared with YGHDYPRAAYQQVIQSALPGQPLP [P16S], YGHDYPRAAYQQVIQTALPGQPLP [P16T] is higher in protein stability index: 1.39 for the first, 2.27 for the second.

Going from YGHDYPRAAYQQVIQVALPGQPLP [P16V] to YGHDYPRAAYQQVIQWALPGQPLP [P16W], the protein stability index rises from 3.03 to 3.06.

Going from YGHDYPRAAYQQVIQYALPGQPLP [P16Y] to YGHDYPRAAYQQVIQPCLPGQPLP [A17C], the protein stability index falls from 2.81 to 2.32.

First: YGHDYPRAAYQQVIQPDLPGQPLP [A17D]
Second: YGHDYPRAAYQQVIQPELPGQPLP [A17E]
The protein stability index of the first is higher: 2.36 for the first, 2 for the second.

Compared with YGHDYPRAAYQQVIQPFLPGQPLP [A17F], YGHDYPRAAYQQVIQPGLPGQPLP [A17G] is lower in protein stability index: 2.48 for the first, 1.46 for the second.

Going from YGHDYPRAAYQQVIQPHLPGQPLP [A17H] to YGHDYPRAAYQQVIQPILPGQPLP [A17I], the protein stability index rises from 2.08 to 2.37.

First: YGHDYPRAAYQQVIQPKLPGQPLP [A17K]
Second: YGHDYPRAAYQQVIQPLLPGQPLP [A17L]
The protein stability index of the first is lower: 1.98 for the first, 3.12 for the second.

First: YGHDYPRAAYQQVIQPMLPGQPLP [A17M]
Second: YGHDYPRAAYQQVIQPNLPGQPLP [A17N]
The protein stability index of the first is higher: 1.95 for the first, 1.29 for the second.

Going from YGHDYPRAAYQQVIQPPLPGQPLP [A17P] to YGHDYPRAAYQQVIQPQLPGQPLP [A17Q], the protein stability index falls from 2.2 to 1.72.

Compared with YGHDYPRAAYQQVIQPRLPGQPLP [A17R], YGHDYPRAAYQQVIQPSLPGQPLP [A17S] is higher in protein stability index: 1.74 for the first, 2.43 for the second.

Going from YGHDYPRAAYQQVIQPTLPGQPLP [A17T] to YGHDYPRAAYQQVIQPVLPGQPLP [A17V], the protein stability index falls from 2.62 to 2.41.

Compared with YGHDYPRAAYQQVIQPWLPGQPLP [A17W], YGHDYPRAAYQQVIQPYLPGQPLP [A17Y] is lower in protein stability index: 1.92 for the first, 1.83 for the second.

Going from YGHDYPRAAYQQVIQPAAPGQPLP [L18A] to YGHDYPRAAYQQVIQPACPGQPLP [L18C], the protein stability index rises from 1.75 to 1.86.

First: YGHDYPRAAYQQVIQPADPGQPLP [L18D]
Second: YGHDYPRAAYQQVIQPAEPGQPLP [L18E]
The protein stability index of the first is higher: 2.17 for the first, 2.06 for the second.

Going from YGHDYPRAAYQQVIQPAFPGQPLP [L18F] to YGHDYPRAAYQQVIQPAGPGQPLP [L18G], the protein stability index falls from 2.59 to 2.01.

Going from YGHDYPRAAYQQVIQPAHPGQPLP [L18H] to YGHDYPRAAYQQVIQPAIPGQPLP [L18I], the protein stability index rises from 1.9 to 2.16.

First: YGHDYPRAAYQQVIQPAKPGQPLP [L18K]
Second: YGHDYPRAAYQQVIQPAMPGQPLP [L18M]
The protein stability index of the first is higher: 2.15 for the first, 1.9 for the second.

First: YGHDYPRAAYQQVIQPANPGQPLP [L18N]
Second: YGHDYPRAAYQQVIQPAPPGQPLP [L18P]
The protein stability index of the first is higher: 2.25 for the first, 1.82 for the second.

Going from YGHDYPRAAYQQVIQPAQPGQPLP [L18Q] to YGHDYPRAAYQQVIQPARPGQPLP [L18R], the protein stability index falls from 2.24 to 2.12.

Compared with YGHDYPRAAYQQVIQPASPGQPLP [L18S], YGHDYPRAAYQQVIQPATPGQPLP [L18T] is higher in protein stability index: 1.6 for the first, 1.76 for the second.

Going from YGHDYPRAAYQQVIQPAVPGQPLP [L18V] to YGHDYPRAAYQQVIQPAWPGQPLP [L18W], the protein stability index rises from 1.65 to 2.01.

Going from YGHDYPRAAYQQVIQPAYPGQPLP [L18Y] to YGHDYPRAAYQQVIQPALAGQPLP [P19A], the protein stability index falls from 2.26 to 1.99.

Compared with YGHDYPRAAYQQVIQPALCGQPLP [P19C], YGHDYPRAAYQQVIQPALDGQPLP [P19D] is lower in protein stability index: 2.24 for the first, 1.98 for the second.
